Here are results for one molecule from patent publication US20070134693A1 (published 2007).

The target in this experiment is T1, M-tropic HIV-1MN envelope glycoprotein gp120 (HIV-1 MN, UniProt P05877 32-513).
T1 construct: also called HIV-1 gp120; HIV-MN gp120
Briefly: fluorescent bead adhesion assay on K562-DC-SIGN cells.

B1: DC-SIGN (receptor)
chain: MSDSKEPRLQQLGLLEEEQLRGLGFRQTRGYKSLAGCLGHGPLVLQLLSFTLLAGLLVQVSKVPSSISQEQSRQDAIYQNLTQLKAAVGELSEKSKLQEIYQELTQLKAAVGELPEKSKLQEIYQELTRLKAAVGELPEKSKLQEIYQELTWLKAAVGELPEKSKMQEIYQELTRLKAAVGELPEKSKQQEIYQELTRLKAAVGELPEKSKQQEIYQELTRLKAAVGELPEKSKQQEIYQELTQLKAAVERLCHPCPWEWTFFQGNCYFMSNSQRNWHDSITACKEVGAQLVVIKSAEEQNFLQLQSSRSNRFTWMGLSDLNQEGTWQWVDGSPLLPSFKQYWNRGEPNNVGEEDCAEFSGNGWNDDKCNLAKFWICKKSAASCSRDEEQFLSPAPATPNPPPA
notes: whole, on cells; also called K562-DC-SIGN; THP-1-DC-SIGN
Consider B1, for which the binding result is recorded as “binds”.
